Target: T1, Glycoprotein VI extracellular domain (Gln21-Lys267) (Homo sapiens, UniProt Q9HCN6 SEQ:1-247)
T1 chain: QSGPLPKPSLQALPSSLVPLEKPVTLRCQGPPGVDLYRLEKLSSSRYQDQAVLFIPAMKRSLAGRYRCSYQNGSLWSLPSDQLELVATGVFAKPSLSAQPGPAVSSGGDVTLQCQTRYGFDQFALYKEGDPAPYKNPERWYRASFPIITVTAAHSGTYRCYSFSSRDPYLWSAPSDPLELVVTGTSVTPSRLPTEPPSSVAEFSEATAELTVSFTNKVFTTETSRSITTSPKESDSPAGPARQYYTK
Assay: filter; binding comparable with and without annealed 3' primer
Settings: tags: C-terminal His6; R&D Systems 3627-GP; label: 5'-32P; 3' fixed region paired with DNA primer
Protocol: The reaction was phenol:chloroform:isoamyl alcohol (25:24:1) extracted, chloroform: isoamyl:alcohol (24:1) extracted, and ethanol precipitated. Three pmoles of dephosphorylated RNA was end labeled with T4 Poylnucleotide Kinase with supplied buffer, and 20 μCi of γ-P³²-ATP and subsequently cleaned with a Biorad MicroBio Spin P-30 spin column. End-labeled RNA was diluted to a final concentration of 2000 cpm/μL and heat denatured at 65° C. for 5 minutes. RNA and GPVI dilutions were equilibrated at 37° C. prior to use. RNA (5 μL) was added to varying concentrations of GPVI (15 μL) at 37° C. and incubated together for 5 to 15 minutes. The complexed RNA/GPVI protein mixture was then loaded over a Protean BA85 nitrocellulose membrane, overlayed on a Genescreen Plus Nylon membrane, in a 96 well vacuum manifold system with washing. The membranes were exposed to a phosphorimager screen, scanned, and quantitated with a Molecular Dynamics Storm 840 Phosphorimager. The fraction bound was calculated by dividing the counts on the nitrocellulose by the total counts and adjusting for the background. Results for binding of enriched ligand libraries from round 10 E2 and round 10 EF of the SELEX as compared to the GPVI-naïve starting ligand library are shown in FIG. 3. […]

B1: EF-3 annealed to 3' DNA primer (mixed)
RNA: GGGAGGACGAUGCGGAUCACACCGCGUCUUGCGUAAGCCUCCUACUAACGGAUCGCAGACGACUCGCUGAGGAUCCGAGA
DNA: TCTCGGATCCTCAGCGAGTCGTCTG
modifications: RNA strand 2'-F C and U; 2'-OH A and G
**Q.** Does B1 bind?
**A.** Result: binds

Reference: patent US20100311820, “NUCLEIC ACID MODULATORS OF GLYCOPROTEIN VI” (Regado Biosciences, Inc, published 2010)
